Results taken from patent publication US11021532 (CENTIVAX, dated 2021).

Assays:
[1] = molecular target: SARS CoV-2 spike protein on pseudovirus (SARS-CoV-2, UniProt P0DTC2 14-1273); experiment: cell-based or functional assay
[2] = molecular target: T1, SARS-CoV-2 Receptor Binding Domain (RBD) protein (SARS-CoV-2); experiment: SPR (Carterra LSA), scFv captured via anti-V5, RBD as analyte, 1:1 fit
[3] = molecular target: T1, SARS-CoV-2 Receptor Binding Domain …; experiment: SPR (Carterra LSA), scFv captured via anti-V5, RBD as analyte

Binder	IC50 [µg/mL] pseudotyped lenti neut [1] [µg/mL]	Kd [2] [nM]	Kd [3] [nM]
COVID19_P24_G06 (scFv, V domains shown) VH: QVQLVQSGAEVKKPGASVKVSCKASGYTFTNYGISWVRQAPGQGLEWMGWISARNGNTNYAQKFQGRVTMTRDTSTSTVYMELSSLRSEDTAVYYCTTDPVLEWFGYSIWGQGTMVTVSS VL: not shown	0.16	–	–
COVID19_P23_G11 (scFv, V domains shown) VH: QVQLVQSGAEVKKPGASVKVSCKASGGTFRSTAISWVRQAPGQGLEWMGWMNPNSGNTGYAQKFQGRVTMTRDTSTSTVYMELSSLRSEDTAVYYCARAGYSSSSGYYYYGMDVWGKGTTVTVSS VL: DIQMTQSPSSLSASVGDRVTITCRASQGISNNLNWYQQKPGKAPKLLIYAASSLQSGVPSRFSGSGSGTDFTLTISSLQPEDFATYYCQQYDTFPLTFGQGTKVEIKR	0.26	–	–
COVID19_P23_G12 (scFv, V domains shown) VH: QVQLVQSGAEVKKPGASVKVSCKASGYIFTSYPIHWVRQAPGQGLEWMGWMNPNSGNTGYAQKFQGRVTMTRDTSTSTVYMELSSLRSEDTAVYYCARDRGSYDTDAFDIWGQGTMVTVSS VL: DIQMTQSPSSLSASVGDRVTITCRASQDISNYLNWYQQKPGKAPKLLIYAASNLQSGVPSRFSGSGSGTDFTLTISSLQPEDFATYYCQQANSFPSTFGQGTKLEIKR	15.9	0.37	< 50
COVID19_P24_C01 (scFv, V domains shown) VH: QVQLVQSGAEVKKPGASVKVSCKASGYTFTRYYIHWVRQAPGQGLEWMGIINPSGGSTTYAQKFQGRVTMTRDTSTSTVYMELSSLRSEDTAVYYCAKGAPHDYIWGSYRPDAFDIWGQGTMVTVSS VL: DIQMTQSPSSLSASVGDRVTITCRASENIDSWLAWYQQKPGKAPKLLIYEASTLESGVPSRFSGSGSGTDFTLTISSLQPEDFATYYCHQYLSSPETFGQGTKVEIKR	0.92	–	–
COVID19_P24_D08 (scFv, V domains shown) VH: QVQLVQSGAEVKKPGASVKVSCKASGYTFTSYDINWVRQAPGQGLEWMGIIDPSGGSTSYAQKFQGRVTMTRDTSTSTVYMELSSLRSEDTAVYYCATVTPGYGMDVWGQGTTVTVSS VL: DIQMTQSPSSLSASVGDRVTITCRASQTIYSYLNWYQQKPGKAPKLLIYDASNLETGVPSRFSGSGSGTDFTLTISSLQPEDFATYYCQQAISFPLTFGGGTKLEIKR	17	–	–
